Reference: the supplement of paper PMC12783771
± gives the standard deviation of the averaged measurements.

B1: library; a variant is named by its letters at X, in order (parent)
chain: MNIQIGELAKRTACPVVTIRFYEQEGLLPPPGRSRGNFRLYGEEHVERLQFIRHCRSLDMPLSDVRTLLSYRKRPDQDCGEVXMLLDEHIRQVESRIGALLELKHHLVELREACSGARPAQSCGILQXLSXCVCXTRGTTAHXSD

Tests used:
[1] = variants of: B1; test: sfGFP reporter fluorescence (15 h) (µM FITC); higher = higher leak; settings: library round: Round 2; ligand: none
Description: (§1)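 Cell-free biosensing: 1 µL Echo-assembled CFE reactions with linear PbrR variant templates (5 nM) and pPbrR-sfGFP reporter, with 1 µM Pb, 30 µM Zn or no ligand; endpoint sfGFP fluorescence after 15 h at 30 °C calibrated as µM FITC. Round 2 ML-predicted PbrR mutants; up to 3 biological replicates.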

[2] = variants of: B1; test: sfGFP reporter fluorescence (15 h) (µM FITC); higher = stronger transcriptional activation; settings: library round: Round 2
Description: as §1

| Variant | sfGFP reporter fluorescence [1] | sfGFP reporter fluorescence ([2]; ligand: 1 µM Pb) | sfGFP reporter fluorescence ([2]; ligand: 30 µM Zn) |
| --- | --- | --- | --- |
| NGADT C134V | 0.103 ± 0.013 | 0.155 ± 0.03 | 2.64 ± 0.21 |
| NGADY L107C | 1.36 ± 0.23 | 2.4 ± 0.18 | 3.25 ± 0.18 |
| NGDAT L85I | 0.0427 ± 0.0024 | 0.0595 ± 0.0027 | 0.809 ± 0.019 |
| NMDDP R96G K104V | 0.0669 ± 0.0034 | 0.0841 ± 0.003 | 0.58 ± 0.055 |
| NGDAL P61N | 0.0792 ± 0.0022 | 0.235 ± 0.018 | 1.57 ± 0.074 |
| NGCDP I125V L129M | 0.0493 ± 0.0017 | 0.0435 ± 0.0022 | 0.0493 ± 0.003 |
| TGCDT | 0.0478 ± 0.0007 | 0.0731 ± 0.0033 | 0.0847 ± 0.0041 |
| NGDDP P61N D64K K104M L107C | 0.791 ± 0.061 | 1.74 ± 0.2 | 2.52 ± 0.35 |
| NGDDP P61N D64T E112V | 0.117 ± 0.013 | 0.294 ± 0.026 | 2.13 ± 0.17 |
| TGDDT R111I | 0.0459 ± 0.00085 | 0.0556 ± 0.0012 | 0.201 ± 0.0085 |
| NGDRP D64T E88A | 0.369 ± 0.048 | 0.499 ± 0.14 | 3.13 ± 0.29 |
| TGDDP E109D E112K | 0.0468 ± 0.0013 | 0.0781 ± 0.0022 | 0.418 ± 0.034 |
| NGYPP V108I | 0.0743 ± 0.0068 | 0.149 ± 0.033 | 1.1 ± 0.074 |
| TGDRW | 0.0495 ± 0.00078 | 0.0726 ± 0.0038 | 0.205 ± 0.014 |
| TGDPR E109L | 0.063 ± 0.0052 | 0.114 ± 0.0072 | 0.346 ± 0.039 |
| NGDDP M60L D64K E81A | 1.03 ± 0.075 | 2.19 ± 0.059 | 3.74 ± 0.22 |
| NGCDP V108I S115G | 0.0507 ± 0.0021 | 0.0573 ± 0.0016 | 0.115 ± 0.0092 |
| NGDDP D87E S95A K104V R111A | 0.0648 ± 0.0053 | 0.0918 ± 0.0068 | 0.74 ± 0.092 |
| SGMAP | 0.0668 ± 0.0035 | 0.0819 ± 0.0034 | 0.586 ± 0.076 |
| NICDP I125L | 0.0468 ± 0.0013 | 0.0446 ± 0.0014 | 0.0531 ± 0.0013 |
| NGAPY | 0.0801 ± 0.0048 | 0.159 ± 0.0087 | 1.13 ± 0.12 |
| NGAAF E112D | 0.0594 ± 0.0017 | 0.0886 ± 0.0049 | 0.82 ± 0.062 |

| Variant | sfGFP reporter fluorescence [1] | sfGFP reporter fluorescence ([2]; ligand: 1 µM Pb) | sfGFP reporter fluorescence ([2]; ligand: 30 µM Zn) |
| --- | --- | --- | --- |
| NADAP K104R | 0.123 ± 0.0024 | 0.419 ± 0.072 | 2.34 ± 0.033 |
| SGDDP L85Y K104V | 0.0628 ± 0.0056 | 0.0671 ± 0.0055 | 0.248 ± 0.027 |
| NIAPP | 0.139 ± 0.0095 | 0.472 ± 0.03 | 2.03 ± 0.16 |
| TGNRA | 0.0608 ± 0.0044 | 0.107 ± 0.018 | 0.663 ± 0.059 |
| TGNDP I90L | 0.0469 ± 0.0017 | 0.0573 ± 0.0011 | 0.192 ± 0.014 |
| TGDDY E112I | 0.0493 ± 0.0015 | 0.0522 ± 0.0014 | 0.076 ± 0.0028 |
| NGDDW R74Q G138A | 0.0503 ± 0.0034 | 0.05902 ± 0.00051 | 0.58 ± 0.017 |
| MGAAP | 0.0477 ± 0.0018 | 0.0933 ± 0.0042 | 0.0535 ± 0.0035 |
| TGDDP V108L E112F | 0.0469 ± 0.0011 | 0.0496 ± 0.0032 | 0.0846 ± 0.0051 |
| NHDDL E109L I125L | 0.048 ± 0.0018 | 0.044 ± 0.0027 | 0.047 ± 0.0027 |
| TGSAP V108L | 0.0457 ± 0.0012 | 0.102 ± 0.0018 | 0.475 ± 0.012 |
| NGDAP S130A T136A | 0.0512 ± 0.001 | 0.0834 ± 0.0067 | 1.11 ± 0.13 |
| NGSAA K104R | 0.0641 ± 0.0074 | 0.097 ± 0.0024 | 1.05 ± 0.14 |
| NMDDP K104V L107S | 0.0726 ± 0.0093 | 0.159 ± 0.014 | 1.27 ± 0.068 |
| NMDAP L107C | 2.23 ± 0.28 | 3.21 ± 0.21 | 3.29 ± 0.5 |
| NIEDP C134E | 0.194 ± 0.028 | 0.316 ± 0.0082 | 4.73 ± 3.2 |
| TGDDP R96A E109A | 0.0459 ± 0.0014 | 0.0588 ± 0.00089 | 0.144 ± 0.02 |
| NGCDP D64K E112H | 0.108 ± 0.012 | 0.402 ± 0.043 | 1.44 ± 0.16 |
| TGDDP D64T R111A | 0.09 ± 0.012 | 0.212 ± 0.024 | 2.38 ± 0.096 |
| TGDDP K104R E112F | 0.0494 ± 0.00089 | 0.0553 ± 0.0034 | 0.111 ± 0.0062 |
| TGDDP R96A K104V | 0.052 ± 0.0012 | 0.0513 ± 0.0043 | 0.0712 ± 0.0018 |
| TGDAP E109L | 0.043 ± 0.0023 | 0.0797 ± 0.0069 | 0.366 ± 0.035 |
